Molecular target: T1, human ISG15 (1-157)-SBP-His (human, UniProt P05161 1-157)
T1 construct: human ISG15, residues 1-157, cloned into pET30b; also called hISG15-SBP-His; human ISG15-SBP; source: E. coli BL21 (DE3), purified (Ni-NTA, SEC); not shown: His, C-terminal, kept
Assay: SEC; VHH and ISG15 mixed at the indicated molar ratios (1:2, 1:1 or 1:1:1) at 20 μM in 500 μl TBS, 20 min at room temperature; Superdex 75 10/300, fractions on SDS-PAGE
Conditions: both partners purified

T1 sequence (P05161 1-157): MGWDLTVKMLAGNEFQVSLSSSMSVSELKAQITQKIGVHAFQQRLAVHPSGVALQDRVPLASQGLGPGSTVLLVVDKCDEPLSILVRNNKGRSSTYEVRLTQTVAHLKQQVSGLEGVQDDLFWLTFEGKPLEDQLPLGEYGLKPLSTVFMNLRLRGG

B1: VHH_(ISG15-A)-HA-His (VHH)
VHH: QLQLVETGGGLVQAGGSLRLSCAASGRTFAGLSVKWFRQPPGAEREWVAHITSTGSSTHYADSVKGRFTISRDYDRNMVYLQMSSLKPEDTAVYYCHASTLWPEKHQDYWGQGIQVTVSS
notes: VHH domain; also called VHH-A; source: E. coli WK6, periplasm (osmotic shock), purified (Ni-NTA, SEC); not shown: LPETGG sortase motif, C-terminal, kept; HA, C-terminal, kept; His6, C-terminal, kept
binding result: binds

Source: publication PMC12406269, “Identification and characterization of nanobodies specific for the human ubiquitin–like ISG15 protein” (The Journal of Biological Chemistry, 2025)
